Experimental data published in the RNAGym collection of RNA variant scans (doi:10.1021/acssynbio.7b00057).

B1: Pistol ribozyme (parent)
chain: GGGUCGUUGUUCCAUAAUCGCGUGGAUAUGGCACGCAAGUUUCUACCGGGCACCGUAAAUGUCCGACUGGAGCCGUUCGGGCGGCUAUAAACAGACCUCAGGCCCGAAGCGUGGCGGCACCUGCCGCCGGUGGUAAAAAAGAUCGGAAGAGCACACGUCU

Variants of: B1
Assay: aptazyme ON/OFF ratio, guanine; higher = stronger switching; co-transcriptional cleavage with and without guanine

Variant	aptazyme ON/OFF ratio
U7C G9A U10C U11C C12G C13G	1.12
U7G U8G U11C C12A C13A	1.42
U7C U8A G9A U10G U11G C12U C13U	1.2
U7A U8A G9U U11A C12A C13G	1.12
U7C U8A G9C C12G C13A	1.14
U7C G9C U10C U11C C12A C13G	1.05
U7A U8A G9A U10A C12U C13A	1.27
G9A U10C U11C C13U	1.01
U7A U8A G9U U10C U11A C12A	1.22
U8G G9A C12A	1.61
U7A U8C G9U U10G U11G C12G C13U	1.29
U7C U8C G9C C12U C13G	1.11
U7A U10A U11C C12U C13A	1.07
U7G U8C G9U U10G U11C	1.15
U7C U8C G9C U11C C12A	1.22
U7G U8A G9A	2.45
U7G U8C G9C U10C C12A C13G	1.1
U7G U8C U10C C12G C13U	1.28
U8A G9C C12U C13U	1.2
U8G G9C U10A U11C C12U C13G	1.06
U10A U11C C13G	1.04
U7G U8C G9C C12G C13A	1.13
U7C U8C G9U U10C U11A	2.44
U7A G9U U10G U11G C12A C13U	1.21

Variant	aptazyme ON/OFF ratio
U7C G9U U10A C13G	1.04
U8G G9C U11C C12A C13A	1.04
U10G U11C C12U C13U	1.11
U7C U8C G9A U10A U11C C12G C13A	1.4
U7C U8C G9A U10A U11C C12G C13U	1.31
U7C U8G G9U U10C U11A	1.5
U7G U10C U11A C13G	1.06
G9A U10G C12G	1.24
U7A U8G G9A U11C C13A	1.12
U7C U8G G9U U10A C12A C13A	1.15
U7G U8G G9U U10C U11A C12A	1.28
U7C U8G G9C U10C U11C C12U C13G	1.04
U8C G9U C12U C13G	1.04
U7C G9A U10G U11A C12U C13G	1.14
U8A G9A U10A U11G C12A C13U	1.11
U7A U8A U11C C12G C13G	1.24
U7A U8A G9U U10C U11C C12A C13A	1.04
G9U C12U C13U	1.34
U7G U8C G9U U10C U11A C12G C13A	1.39
U7A U8G G9C C12U C13U	1.21
U7C U8A G9C C12U C13G	1.07
U7A U8G U10A U11A C13G	1.38
U7C G9U U10C C12U C13U	1.08
U7G U8G G9C U10G U11C C12A C13U	1.12

Variant	aptazyme ON/OFF ratio
U7C G9A U10A C12G C13U	1.21
U8C U10A U11A C12G	1.28
U7G U8G U10C C12A C13U	1.28
U7A U8G G9A U11G C12A C13U	1.07
G9C U10A U11G C13G	1.09
U7C U8A U10C C12A	1.41
U7A U8C G9C U10A U11A	1.07
U8C G9A U10C U11A	3.76
U7G U8G U10C	1.38
U8C G9U U10A U11G C12G C13A	1.13
U7C G9C U10A C12G C13G	1.11
U8G G9C U10C C13G	1.04
U7A U8C G9U C13A	1.27
U7C G9U U10G U11C C12A C13U	1.17
U8A G9C U10G U11A C12U C13A	1.12
U7C G9U U10G U11C C12G	1.09
U7G U8C C12G C13G	1.08
U8G G9U U11A C12U C13U	1.35
U8A U11G C12U C13U	1.11
U7G U11C C12U C13A	1.13
U7C U8G U10G U11C C12U	1.16
U7C U8G G9U U10G U11A C12U C13A	1.24
U8C G9U U10G U11C C12G C13G	1.26
U7A G9C U10G U11C C13G	1.05

Variant	aptazyme ON/OFF ratio
U7A U8C U10C C12U C13U	1.38
U7G U8C G9U U10G U11G C12A C13A	1.11
U7G U8C G9U U10G U11G C12A C13G	1.12
U7C U8G G9U U10A U11C C13U	1.02
U7C U8C G9U U11G C12A C13G	1.11
U7G U8G U10A U11A C12G C13G	1.26
U7G U8C G9A U11G C13G	1.09
U7A U8A G9U U11A C12G C13G	1.16
U7A U8C G9A U10G U11G C12G C13A	1.42
U7G U8A G9U U10C U11A C12G	1.13
U7A U8G U11G C12G C13U	1.42
U7C U8A U10G U11C C12U	1.09
G9U U10A U11C C12G C13G	0.978
U8C U10A U11G C12A C13U	1.33
U7G U8A G9U U10C U11C C13U	1.01
U8G G9U U10A U11A C12U C13G	1.11
U8G G9U U10A U11A C12U C13U	1.15
U8G U10G U11G C12A C13G	1.05
U7G U8C G9A U10A U11G C13G	1.04
U7G G9C U10G U11G C12G C13G	1.06
U7G U8G U10C U11A C12G	1.21
U7G U8A G9A U10A U11C C12U C13G	1.1
U7C G9U U10G U11A C12G C13G	1.24
U7C U8A G9A U10C U11C C12A C13G	1.05

Variant	aptazyme ON/OFF ratio
U7A U8C U10G U11C C12U C13G	1.29
U7G U8G G9U U10C U11A C12U C13A	1.35
U7G G9A U10G	1.19
U7C U8G U10A U11G C12G C13G	1.23
U7G U8C G9C U11A C12G C13U	1.1
U7C G9C U10G U11G C12A C13A	1.08
U7G U8G U10C U11C	2.2
U7G U8A G9C U10G C12U C13A	1.06
U7C U8G U10G U11G C12G C13G	1.15
U7A G9A U11A C13G	1.11
U10A U11C C12A C13A	1.17
U7C U8C G9A U10C C13U	1.52
U8C U10C	2.68
U8A U10G C12G C13A	1.37
G9C U10C U11C C12U	1.03
U7G U8A G9U U10G U11A C12G C13G	1.05
U7G U8A G9C U11C C13G	1.05
U10A U11C C12G C13G	1.29
U7A C12U C13G	1.16
U7A U8C G9U C12G C13G	1.16
U7C U8A G9C U10G U11G C13G	1.11
U8A G9U U11A C12G C13G	1.3
U7G U8A G9U C13U	1.3
U8C G9C U10A U11A C12U C13G	1.1

Variant	aptazyme ON/OFF ratio
U8C G9C U10G U11A C13G	1.19
U8A G9C U10C U11A C12A C13U	1.13
U8A G9U U10A U11C C13G	1.08
U7A U8A G9A U10G U11A C12G C13U	1.33
U7C U8C G9C U11C C12G C13A	1.09
U7G U8G G9C U10G U11C C12U C13U	1.11
U8G G9C U10A U11G C12U C13A	1.06
U8C G9A U10G C12G C13A	1.14
U7G U8A G9U U10C U11G C12U C13A	1.09
U7G U8C G9U C12U C13G	1.16
U7A U8A U10G	1.52
U8A G9U U10C U11A C13U	1.17
U7G U8G U10A U11G C12U C13G	1.36
U7C U8C G9U U10G C12G	1.15
U7A G9C U10G U11G C12A C13A	1.11
U7C U8G G9C U11G C12U C13U	1.37
U7G U8C G9C U10C C13A	1.06
U7A U8C G9A U11G C12U	1.79
G9A U10G U11G	1.11
U7C G9C U11A C12U	1.02
U7G U8A U11C C12A C13U	1.46
U7G G9A U10A U11C	1.09
U7G U8G G9C U10A U11A C12A C13G	1.04
U7G G9C U10C U11A C12A	1.46

Variant	aptazyme ON/OFF ratio
U7A U8A G9U U10G	1.61
U7G G9C U10A U11G C12U C13A	1.18
U7A U8G U11G C12U C13A	1.63
U7A U8G U10G C13A	1.26
U8C G9A U11C C12G	1.29
U7A U8G G9A U10C U11C C12A C13G	1.22
U8A G9A U10G U11G C13U	1.05
U7A U8A U10A U11C C13U	0.989
U7A U8G G9A U10A U11A C12G C13G	1.34
U7G U8G G9A C13U	1.36
U7C G9C U10C U11G C12U C13A	1.08
U7G U8C G9C U10C U11G C12U	1.1
U8A G9A U10C	2.54
U7C U8A U10G U11C C12U C13U	1.41
U7G U8G G9C C12U	1.94
U7A U8C G9C U10A C12U C13U	1.07
U8A G9C U10C C12U C13G	1.03
U7C U8A G9C U11A C12U C13G	1.1
U8A G9C U10G U11C C12G C13U	1.19
G9U U10A U11C C12U C13A	1.11
U8G G9U U10C C12U C13U	1.2
U7C U8A G9C U11A C12A	1.1
U7A U8G G9C U11G C12A C13U	1.28
